Assays:
6162-B78-8_MAM02-008 = assay: NGS-count immunoassay, capture antibody titration; average Kd; antibody pair
6162-H85-2t_6162-F78-2 = assay: as above
401-01R_6162-C57-1 = assay: NGS-count immunoassay, capture antibody titration, single-site binding fit; average Kd; antibody pair

B1: Analyte (other)
chain: KLTIESTPFNVAEGKEVLLLVHNLPQHLFGYSWYKGERVDGNRQIIGYVIGTQQATPGPAYSGREIIYPNASLLIQNIIQNDTGFYTLHVIKSDLVNEEATGQFRVYPELPKPSISSNNSKPVEDKDAVAFTCEPETQDATYLWWVNNQSLPVSPRLQLSNGNRTLTLFNVTRNDTASYKCETQNPVSARRSDSVILNVLYGPDAPTISPLNTSYRSGENLNLSCHAASNPPAQYSWFVNGTFQQSTQELFIPNITVNNSGSYTCQAHNSDTGLNRTTVTTITVYAEPPKPFITSNNSNPVEDEDAVALTCEPEIQNTTYLWWVNNQSLPVSPRLQLSNDNRTLTLLSVTRNDVGPYECGIQNELSVDHSDPVILNVLYGPDDPTISPSYTYYRPGVNLSLSCHAASNPPAQYSWLIDGNIQQHTQELFISNITEKNSGLYTCQANNSASGHSRTTVKTITVSAELPKPSISSNNSKPVEDKDAVAFTCEPEAQNTTYLWWVNGQSLPVSPRLQLSNGNRTLTLFNVTRNDARAYVCGIQNSVSANRSDPVTLDVLYGPDTPIISPPDSSYLSGANLNLSCHSASNPSPQYSWRINGIPQQHTQVLFIAKITPNNNGTYACFVSNLATGRNNSIVKSITVSASGTSPGLSA
Kd (6162-B78-8_MAM02-008): 1.94 nM | Kd (6162-H85-2t_6162-F78-2): 0.352 nM | Kd (401-01R_6162-C57-1): 0.906 nM

Reference: patent publication US20240409983A1 (published 2024)
